Test: yeast display, Sf9 membrane polyspecificity reagent, FACS + sequencing; frameworks hold sequencing errors
Method in brief: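 A nanobody's polyreactivity label depends on the gate it was sorted from. Yeast display cells were stained with 10% biotinylated, detergent-solubilized Sf9 membrane reagent for 1 hour at 4 °C, enriched on streptavidin microbeads and sorted by FACS. The low and high (top ~1%) gates were set on anti-HA fluorescence for expression and streptavidin fluorescence for reagent binding.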

Sequence	polyreactivity (PSR sort gate)
QLQLVESGGGLVQAGGSLRLSCAASGGTFYSYEMGWYRQATVKEREFVAAITYGGGSTYYADSVKGRFTMSRDNAKNTDYLQMNSLKPEDTAVYYCYARRYGSRLGERYYYWGQGTQVTVSS	high polyreactivity
QVQIVESGGCLVQAGGSLRLICAASGNTFRWYDMGWYIQAPRKEREFVADITVRGGSTYYADSVKGRFTISRDNAKNTVYLQMNCLKPEDTAVYYCAVDFRRYPGFDYWGQGTQVTVSS	low polyreactivity
QVQLVESGGGLVQAGGSHRLSCAASGRIFGRNAMGCYRQAPGKERELVATITSGGGTNYADSVKGRFTISRDNAKNTVYLQMNSLKPEDTAVYYCAATVAILRKFWMDYWGQGTQVTVSS	low polyreactivity
QVQLVESGGGLVQAGGSLRLSCAASGSIIDRYAMGWYRQAPGKERELVAAISYSGGRTYYADSVKGRFTISRDNAKNTVYLQMNSLKPEDTAVYYCAADSPYDEYDYWGQGTQVTVSS	high polyreactivity
QVQLVESGGGLVQAGGSLRLSCAASGSIFGFYAMGWYRQAPGKERELVAAITSGDSTHYADSVKGRFTISRDNAKNTVYLQMNSLKPEDTAVYYCAASAPYRYYRSAYYYWGQGTQVTVSS	low polyreactivity
QVQLVDSGGGLVQAGGSLSLSCAASGRTFVTNAMGWYRQAPGKERELVAAISGNGGSTYYADSVKGRFTISRDNAKNTVYLQMNSLKPEDTAVYYCNKDYHVRYYYWGQGTQVTVSS	low polyreactivity
QVQLVESGGGLVQAGGSLRFSCAASGFTFSHYAMGWYRQAPGQERELVAAITWSGGSTYYADSVKGRFTISRDNEKNTVYLQLNSVKPEDTAVYYCAAESYRDGVDYWGQGTQVTVSS	high polyreactivity
QVHLVESGGGLVQAGGSLRLSCAASGRIFPKNGMGWYRQAPGTERDLVAAITSGTSTYYADSVKGRFTISRDNAKNTVYLQMNRLKPEDTAVYYCAARPTDGSGWPYRWTSDYWGQGTQVTVSS	low polyreactivity
QVQLEESGGGLVQAGGSLRLSCAASGRTFGRNAMGWYRQAPGERELVAVISRGGSTYYADSVKGRFTISRDNAKNSVYLQMNSLIPEDTAVYYCNADTVYTRTAPYDYWGQGTQVTVSS	low polyreactivity
QVQLVESGGGLVQAGGSLRLSCAASGRTFHGYAMGWYRQAPGNEREFVAAISSDGDSTYYADSVKGRFTISRDNAKNTVYLQMNSLKPEDTAVYYCAAERGYHGGGSGLYDYWGQGTQVTVSS	low polyreactivity
QVQLVESGGGLDQARGSLRLSCAASGSTFAFYAMGWYRQAPGKERELVAAITGDGDSTYYADSVKGRFTISRDNAKNTVYLQMNSLKPEDTAVYYCAKSSGGGPSSFDYWGQGTQVTVSS	low polyreactivity
QVQLVESGGGLVQAGGSLRLICAASGFISVRNAMGWYRQGPGKERELGAAISSGDTTDYADSVKGSFTISRDNAKNTVYLQMNSLKPEDTAVYYCAAVYYGRYYYWGQGTQVTVSS	low polyreactivity
QVQLVESGGRIVQAGGSLRLICASSGLIFYDNMGWYRQAPGKERELVAAISSSGGSRTYADSVKGRFTISRDNAKNTVYLQMNSLKPEDTAVYYCAVDKHYYGRYGVTYDYDYWGQGTQVTVSS	low polyreactivity
QVQLVESGGGLVQAGGSLRLSCAASGSTFSLYVMGWYRQAPGKEREFVATINWRTVSTYYADSVKGRFTISRDNAKKTVYLQMNSLIPEDTAVYYCNAVSYPPDGTYDYWGQGTQVTVSS	low polyreactivity
QVQLVESGGGLVQAGGSLRLSCAASGFTFSINTMGWYRQAPGKERQFVAGISRSGGSTYYADSVKWRFTISRDNAKNTVYLQMNSLKPEDTAVYYCAAGGPYWSRYEYWGQGNQVTVSS	high polyreactivity
QVQLVESGGGLVQSGGSLRISCAASGGIFKYNAMGWYTQAPGKERELVAAINYSGGRTYYADSVKGRFTISRDNAKNTVYLQMNSLKPEDTAVFYCNALTRGHTGQPYTYDYWGQGNQVTVSS	high polyreactivity
QLQHEESRGGLVQAGGSLRLSCAASGFIFPAYVMGWYRQAPGKERELVSAIDWSGDNTYYADSVKGRFTISRDNAKNTVYLQMNSLTPEDTAVYYCAKDNDYPTEWLSDYYYWGQGTQVTVSS	low polyreactivity
QVQLVESGGGLVHAGGSLRLSCAASGSIIEAYAMGWYRQAPGKEMELVAVISTGGGSTSYADSVKGRFTISRDNAKNTVYLQMNSLKPEDTAVYYCAAEYRWSYFRTYYSWGQGTQVTVSS	low polyreactivity
QVQLVESGGGLVQAGGSLRLSCAASGRIFSQYAMGWYRQAPGKEREFVASISRSGGRTYYADSVKGRFTISRDNAKNTVYLQMNSLKPEDTAVYYCAARAETRYYTYNYWGQGTQVTVSS	high polyreactivity
QVQLVESGGRLVQAGGSLRLSCASSGSTFVPNDMGLYRQAPGKERELVAAISRSGDDTYYADSVKGRFTISRDNAKNNVYLQMNSLKPVYTAVYYCAASAGYAYNYWGQGTQVTVSS	low polyreactivity
QVQLVESGGGLVQAGGSLRLSCAASGSILYLNAMGWYRQAPGKERELVASISSSGGNTYYADSVTGRFTISRDNAKNTVYFQMNSLKPEDTAVYYCNTRWVHRDWYDYWGQGTQVTVSS	high polyreactivity
QVQLVESGGGLVQAGGSLRLSCAASGRTFYANAMGWYRQAPGKERELVASITTSGGTYYADSVKGRFTISRDNAKNTVYLQMNSLKPEDTAVYYCAAEVYRSIGYDYWGQGTQVTVSS	low polyreactivity

Sequence	polyreactivity (PSR sort gate)
QVQLVESGGGLVQAGGSLRLSCAASGSIFYEYAMGWYRQAPGKEREFVASISWSGGITYYADSVKGRFTISRDNAKNTVYLQMNSLKPEDTAVYYCAADFSWYLYDYDYWGQGTQVTVSA	low polyreactivity
QVQLVESGGGLVQAGGSLRLSCAASGSTFVKYAMGWYRQAPGKERELVAAITDGGGGTFYADSVKGRFTISRDNGLNTVYLQMNSLNPEDTAVFYCNVGVSSAEDFDYWGQGTQVTVSS	low polyreactivity
QVQLVESGGGLVQAGGSLRLSCAASGRIFFYAMGWYRQAPGKERELVASITTSGTSTYYADSVKGRFTISRDNAKNTVYLQMNSLKPEDTAVYYCNARVRYTVGPLSSLDGEYWGQGTQVTVSS	low polyreactivity
QVQLVESGGGLVQAGGILRLSCAASGSTFYSYAMGWYRQAPGKERELVAYIDWSGGYTYYADSVKGRFTISRDNAKNTVYLQMNSLKPEDTAVYYCNAERGATGYYVTGDDYWGQGTQVTVSS	low polyreactivity
QVQLGESGGGLVQAGGRLRLSCAASGYTFGYYTMGWYRQAPGKERELVASIDSGGGTNYADSVKGRFTISRDNAKNTVYLQMNSVKAEDTAVYYCAAESPLYWVDDFESGWRYYYWGQGTQVTVSS	low polyreactivity
QVQLVESGGGLVQAGGSLRLSCAASGSIFDYNAMGWYRQAPGKERELVAAISSGGSTYYADSVKGRFTISRDNAKNTVYLQMNSLKPEDTEVYYCAVKVWLVIQFDYWGQGTPVTVSS	low polyreactivity
QVQLVESGGGLFQAGGSLRLSCAASGLIFGRYAMGWYRPAPGKERELVAAISRSGGSTHYADSVKGRFTISRDNAKNTVYLQMNSLKPEDTAVYYCAAVWPFDRSRMDYWGQGTQVTVSS	high polyreactivity
QVQLVESGRGLVQAGGSLRLSCAASGFTFSLNAMGWYRQAPGKERELVAGISIGGSTNYADSVKGRFTISRDNAKNTVYLQMNSLKPEDTAVYYCNAYYWSATWYFAAWDYYYWGQGTQVTVSS	high polyreactivity
QVQLVESGGGLVQAGGSLRLSCAASGRTFYTYAMGWYRQAPGKERELVAAISSSGSTYYADSVKGRFTISRDNAKNTVYLQMNSLKPEDTAVYYCNARTSRYRRGGDSWGQGTQVTVSS	high polyreactivity
QVQLVESGGGLVQAGGSLRLSCAASGSIFHGYAMGWYRQAPGKERELVAAISSTGGSTYYADSVKGRFTISRDNAKNTVYLQMNSLKPEDTAVYYCAAYYYVGYRARRYDYWGQGTQVTVSS	high polyreactivity
QVQLVESGGGLVQAGGSLRLSCAASGRIFGKNDMGWYRQAPGKETEFVATIDWSGGSTYYADSVKGRFTISRDNAKNTVYLQMNSLKPEDTAVYYCAASGWNRYLFDYWGQGTQVTVSS	low polyreactivity
QVQLVESGGGFFQAGGSLRLSCAASGTIGRNAMGWYRQAPGKESEFVPAISYRGTSTYYADSVKGRFTISRDNAKNTVYLQMKSLKPDDTAVYYCATYWAAGYRSRYDYWGQVTQVTVSS	high polyreactivity
QVQLVESGGGLIQAGGSLRLSCAASGSNFRYYALGWYRQAPGKESELVAAISQSGGSTHYAESVKGRFTISRDNAKITVYLQMNSLKAEDTAVYYCAKHWGPGTQVTVSS	low polyreactivity
QVELVESGGGLVQAGGSLRLSCSASGSIFYKYAMGWYRQAPGKERELVAAIRVSGGSTYYADSVKGRFTISRDNAKNTVYLQMNSLKPEDTAVYYCAAESKFPWGYRYDYWGQGTQVTVSS	low polyreactivity
QVQLVESGGGLVQAGGSLRLSCAASGSTFGGNDMGWYRQAPGKERELVAAISSGTSTNYADSVKGRFTISRDNAKNTVYLQMNSLKPEDTAVYYCNAGFWYRRTYDYWGQGTQVTVSS	low polyreactivity
QVQLVESGGGLVQAGGSLRLSCAASGITFEYNAMGWYRQAPGKERELVATISGGARTYYADSVKGRFTISRDNAKNTVYLQMNSLKPEETAVYYCAAKYPWYGWFDHWGQGTQVTVSS	low polyreactivity
QVQLVESGGGLVQAGGSLRLSCAASGRTFPFYAMGWYRQAPVKEREFVAAITASGDSTYYADSVKGRFTISRDNAKYTVYLQMNSLKPEDTAVYYCAADLPVWYVTRYDYWGQGTQVTVSS	low polyreactivity
QVQLVESGGGLVQAGGSLLLSCAASGRIFIDYAMGLYRQAPGKERELVATISESGGTTYYADSVKGRFTISRDNGKNTVYLQMNSLKPEDTAVYYCAAKRLCRPYDYWGQGTQVTVSS	low polyreactivity
QVQLVESGGGLVQAGGSLRLSCADSGFTFDYYTMGWYRQAPGKDRELVAAITYSGGITYYADSVKGRFTISRDNAKNTVYLQMNSLKPEDTAVYYCNARYSPRTGRGRHVTYYYWGQGTQVTVSS	high polyreactivity
QVQLVESAGGLVQAGGSLRLSCAASGNTFWFYGMGWYRPAPGKVRELVAAITSGGSTDYPDSVKGRCTISRDNAKNTVYLQMNSLKPEDTALYYCAAEPVAYYGSSYGYWGQGTQVTVSS	low polyreactivity
QVQLVESGGGLVQAGGSLRLSCAASGRIFLRNAMGWYRQAPGKERELVANITSRGGSTYYADSVKGRFTISRDNAKNTVYLQMNSLKPEDTAVYYCAADPRRYRGFGYVYGGFYYWGQGTQVTVSS	low polyreactivity

— the nanobody polyreactivity screen of Harvey et al. (2022)
